Experiments:
[1] = target: T1, laminin-211 (human, UniProt P24043 23-3122; P07942 22-1786; P11047 34-1609); test: ELISA; plate coated with 10 µg/mL laminin, 1 µg/mL PlGF-2 in solution without or with 10 µM heparin, bound GF detected with antibody [panel B]
T1 construct: Full-length recombinant human laminin isoform (BioLamina); chains read from the isoform name
Description: (§1) FIGS. 2A-C. […] ELISA plates were coated with 10 μg/mL laminin and further incubated with a 1 μg/mL (A) VEGF-A165, (B) PlGF-2, or (C) FGF-2 solution in the absence or presence of excess (10 μM) heparin. Bound GFs were detected using a specific antibody for each GF (n=4, mean±SEM). Statistical analyses were done using the Mann-Whitney U test by comparing the signals with and without heparin. *p<0.05, **p<0.01.
(§2) Because the GFs that bound to laminins have also been previously reported to bind to other ECM glycoproteins through HBDs, it was hypothesized that HBDs of laminins might be responsible for the interactions between GFs and laminin. To address this hypothesis, ELISA assays were repeated for VEGF-A165, PlGF-2 or FGF-2 in the presence of heparin added in excess (10 μM). […] To further confirm this, the inventors tested direct GF binding to the LG domains from human laminin α3, α4 and α5, within which HBDs of laminin were localized.

[2] = target: T2, laminin-111 (human, UniProt P25391 18-3075; P07942 22-1786; P11047 34-1609); test: as above
T2 construct: Full-length recombinant human laminin isoform (BioLamina); Chain composition is read from the isoform name
Description: as §1, §2

[3] = target: T3, laminin-411 (human, UniProt Q16363 25-1823; P07942 22-1786; P11047 34-1609); test: as above
T3 construct: Full-length recombinant human laminin isoform (BioLamina); chains read from the isoform name
Description: as §1, §2

[4] = target: T4, laminin-421 (human, UniProt Q16363 25-1823; P55268 33-1798; P11047 34-1609); test: as above
T4 construct: Full-length recombinant human laminin isoform (BioLamina); chains read from the isoform name
Description: as §1, §2

[5] = target: T5, laminin-521 (human, UniProt O15230 36-3695; P55268 33-1798; P11047 34-1609); test: SPR; laminin-521 immobilised on the chip (~2000 RU), PlGF-2 flowed at 20-75 nM; Langmuir fit
T5 construct: Full-length recombinant human laminin isoform (BioLamina); chains read from the isoform name
Description: (§3) A450 nm represents absorbance at 450 nm. BSA-coated wells served as negative controls (n=4, mean±SEM). Signals greater than 0.1 (grey box) are considered to be significant. […] Experimental curves were fitted with Langmuir binding kinetics.
(§4) The obtained binding curves were fitted with Langmuir binding kinetics to calculate specific dissociation constants (KD) (FIG. 1B).
(§5) SPR analysis was performed as described previously². In brief, measurements were made with a Biacore 3000 SPR system (GE Healthcare). […] VEGF-A165, PDGF-BB, or PlGF-2 was flowed at increasing concentrations in the running buffer at 20 μL/min. The sensor chip was regenerated with 50 mM NaOH for every cycle. Specific bindings of GFs to laminin were calculated by comparison to a non-functionalized channel used as a reference. Experimental results were fitted with Langmuir binding kinetics using BIAevaluation software (GE Healthcare).

[6] = target: T6, human plasma-derived vWF (human, UniProt P04275 764-2813); test: ELISA, GF coated 50 nM, vWF 1 µg/mL
T6 construct: mature; also called plasma-derived purified vWF; von Willebrand factor

[7] = target: T5, laminin-521; test: SPR, laminin-521 immobilised, GF flowed, Langmuir fit
Description: as §3, §4, §5

[8] = target: T7, recombinant laminin α3 2928-3150 protein (linker domain and LG4 domain) (human, UniProt Q16787 2928-3150); test: ELISA, LG domain protein coated, GF 1 µg/mL
T7 construct: range 2928-3150; Made in HEK-293F cells; also called laminin alpha 3 LG domain recombinant protein
T7 sequence: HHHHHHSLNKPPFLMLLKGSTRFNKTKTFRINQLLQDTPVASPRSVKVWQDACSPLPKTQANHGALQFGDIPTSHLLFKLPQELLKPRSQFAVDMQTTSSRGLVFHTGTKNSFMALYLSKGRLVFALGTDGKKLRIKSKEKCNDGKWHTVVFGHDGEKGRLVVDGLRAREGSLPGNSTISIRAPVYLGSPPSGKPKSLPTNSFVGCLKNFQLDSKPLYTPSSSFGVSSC
Description: (§6) Affinity of GFs against recombinant laminin LG domains. ELISA plates were coated with 1 μg/mL (A) α3₂₉₂₈₋₃₁₅₀, (B) α4₈₂₆₋₁₈₁₆, or (C) α5₃₀₂₆₋₃₄₈₂ and further incubated with 1 μg/mL of VEGF-A165, VEGF-A121, PlGF-2, PlGF-1, PDGF-BB, or FGF-2 solution. Bound GFs were detected using a specific antibody for each GF (n=4, mean±SEM). Statistical analyses were done using the Mann-Whitney U test by comparing the signals obtained from the laminin domain- and the BSA-coated wells. *p<0.05, **p<0.01. […] A SPR chip was functionalized with the laminin α3₂₉₂₈₋₃₁₅₀ recombinant protein (˜1000 RU), and each GF was flowed over the chip at indicated concentrations. Curves represent the specific responses (in RU) to laminin. Experimental curves were fitted with Langmuir binding kinetics.
ELISA tests were performed as described above. […] 1 μg/mL of BSA served as non-binding protein control. After blocking with 2% BSA PBS-0.05% Tween 20 (PBS-T) solution, 1 μg/mL of the recombinant human proteins (VEGF-A121, VEGF-A165, PlGF-1, PlGF-2, PDGF-BB or FGF-2) or 10 μg/mL of biotinylated heparin (Sigma-Aldrich) were added. Bound GF was detected with biotinylated antibodies for human VEGF, PlGF, PDGF-BB, or FGF-2 (R&D Systems). The antibodies were detected by streptavidin-HRP (R&D Systems).

[9] = target: T8, recombinant human vWF A1 domain (human, UniProt P04275 1261-1468, limits assumed); test: ELISA, A1 domain coated, GF 1 µg/mL
T8 construct: domain: A1; also called vWF A1 recombinant protein; recombinant A1 domain
Description: ELISA tests were performed as described above. […] After blocking with 2% BSA solution containing PBS-T, 1 μg/mL of the recombinant human proteins VEGF-A121, VEGF-A165, PlGF-1, PlGF-2, PDGF-BB, FGF-2, CXCL-12α and CXCL-12γ were added. 1 μg/mL of BSA served as non-binding protein control. Bound GF or chemokine was detected with biotinylated antibodies for human VEGF-A, PlGF, PDGF-BB, FGF-2, or CXCL-12 (R & D Systems). The antibodies were detected by streptavidin-HRP (R & D Systems). Color development and the absorbance measurement were done as described above.

[10] = target: T6, human plasma-derived vWF; test: SPR; plasma-derived vWF immobilised (~2000 RU), PDGF-BB flowed at 25-200 nM; heterogeneous ligand-parallel reactions fit, site 1 [panel D]
Description: (§7) A450 nm represents absorbance at 450 nm. Signals from VEGF-A121 served as a baseline, and bovine serum albumin (BSA) served as a negative control (n=4, mean±SD). […] Experimental curves were fitted with (C) 1:1 Langmuir fit model and (D) heterogeneous ligand-parallel reactions binding.
(§8) SPR assays were performed as described previously2. In brief, measurements were made with a Biacore X100 SPR system or Biacore 3000 SPR system (GE Healthcare). […] Recombinant human VEGF-A165, VEGF-A121, or PDGF-BB was flowed at increasing concentrations in the running buffer at 30 μL/min. The sensor chip was regenerated with glycine at pH 2 for every cycle.

[11] = target: T7, recombinant laminin α3 2928-3150 …; test: SPR; α3 2928-3150 recombinant protein immobilised (~1000 RU), PDGF-BB flowed at 0.325-41.6 nM; Langmuir fit [panel D]
Text: Statistical analyses were done using the Mann-Whitney U test by comparing the signals obtained from the laminin domain- and the BSA-coated wells. *p<0.05, **p<0.01. […] A SPR chip was functionalized with the laminin α3₂₉₂₈₋₃₁₅₀ recombinant protein (˜1000 RU), and each GF was flowed over the chip at indicated concentrations. Curves represent the specific responses (in RU) to laminin. Experimental curves were fitted with Langmuir binding kinetics.
as §2
SPR analysis was performed as described previously². In brief, measurements were made with a Biacore 3000 SPR system (GE Healthcare). […] VEGF-A165, PDGF-BB, or PlGF-2 was flowed at increasing concentrations in the running buffer at 20 μL/min. The sensor chip was regenerated with 50 mM NaOH for every cycle.

[12] = target: T6, human plasma-derived vWF; test: SPR; plasma-derived vWF immobilised (~2000 RU), PDGF-BB flowed at 25-200 nM; heterogeneous ligand-parallel reactions fit, site 2 [panel D]
Description: as §7, §8

[13] = target: T7, recombinant laminin α3 2928-3150 …; test: SPR, α3 2928-3150 immobilised, GF flowed, Langmuir fit
Description: as §6, §2
SPR analysis was performed as described previously². […]

[14] = target: T1, laminin-211; test: ELISA, GF coated, laminin 10 nM
[15] = target: T2, laminin-111; test: ELISA, GF coated, laminin 10 nM
[16] = target: T3, laminin-411; test: ELISA, GF coated, laminin 10 nM
[17] = target: T4, laminin-421; test: ELISA, GF coated, laminin 10 nM
[18] = target: T6, human plasma-derived vWF; test: SPR, vWF immobilised, GF flowed, heterogeneous ligand-parallel reactions fit
Description: as §7, §8

[19] = target: T5, laminin-521; test: SPR; laminin-521 immobilised on the chip (~2000 RU), PDGF-BB flowed at 25-200 nM; Langmuir fit
Description: as §3, §4, §5

T4 sequence (Q16363 25-1823 limits assumed, chain 1 of 3): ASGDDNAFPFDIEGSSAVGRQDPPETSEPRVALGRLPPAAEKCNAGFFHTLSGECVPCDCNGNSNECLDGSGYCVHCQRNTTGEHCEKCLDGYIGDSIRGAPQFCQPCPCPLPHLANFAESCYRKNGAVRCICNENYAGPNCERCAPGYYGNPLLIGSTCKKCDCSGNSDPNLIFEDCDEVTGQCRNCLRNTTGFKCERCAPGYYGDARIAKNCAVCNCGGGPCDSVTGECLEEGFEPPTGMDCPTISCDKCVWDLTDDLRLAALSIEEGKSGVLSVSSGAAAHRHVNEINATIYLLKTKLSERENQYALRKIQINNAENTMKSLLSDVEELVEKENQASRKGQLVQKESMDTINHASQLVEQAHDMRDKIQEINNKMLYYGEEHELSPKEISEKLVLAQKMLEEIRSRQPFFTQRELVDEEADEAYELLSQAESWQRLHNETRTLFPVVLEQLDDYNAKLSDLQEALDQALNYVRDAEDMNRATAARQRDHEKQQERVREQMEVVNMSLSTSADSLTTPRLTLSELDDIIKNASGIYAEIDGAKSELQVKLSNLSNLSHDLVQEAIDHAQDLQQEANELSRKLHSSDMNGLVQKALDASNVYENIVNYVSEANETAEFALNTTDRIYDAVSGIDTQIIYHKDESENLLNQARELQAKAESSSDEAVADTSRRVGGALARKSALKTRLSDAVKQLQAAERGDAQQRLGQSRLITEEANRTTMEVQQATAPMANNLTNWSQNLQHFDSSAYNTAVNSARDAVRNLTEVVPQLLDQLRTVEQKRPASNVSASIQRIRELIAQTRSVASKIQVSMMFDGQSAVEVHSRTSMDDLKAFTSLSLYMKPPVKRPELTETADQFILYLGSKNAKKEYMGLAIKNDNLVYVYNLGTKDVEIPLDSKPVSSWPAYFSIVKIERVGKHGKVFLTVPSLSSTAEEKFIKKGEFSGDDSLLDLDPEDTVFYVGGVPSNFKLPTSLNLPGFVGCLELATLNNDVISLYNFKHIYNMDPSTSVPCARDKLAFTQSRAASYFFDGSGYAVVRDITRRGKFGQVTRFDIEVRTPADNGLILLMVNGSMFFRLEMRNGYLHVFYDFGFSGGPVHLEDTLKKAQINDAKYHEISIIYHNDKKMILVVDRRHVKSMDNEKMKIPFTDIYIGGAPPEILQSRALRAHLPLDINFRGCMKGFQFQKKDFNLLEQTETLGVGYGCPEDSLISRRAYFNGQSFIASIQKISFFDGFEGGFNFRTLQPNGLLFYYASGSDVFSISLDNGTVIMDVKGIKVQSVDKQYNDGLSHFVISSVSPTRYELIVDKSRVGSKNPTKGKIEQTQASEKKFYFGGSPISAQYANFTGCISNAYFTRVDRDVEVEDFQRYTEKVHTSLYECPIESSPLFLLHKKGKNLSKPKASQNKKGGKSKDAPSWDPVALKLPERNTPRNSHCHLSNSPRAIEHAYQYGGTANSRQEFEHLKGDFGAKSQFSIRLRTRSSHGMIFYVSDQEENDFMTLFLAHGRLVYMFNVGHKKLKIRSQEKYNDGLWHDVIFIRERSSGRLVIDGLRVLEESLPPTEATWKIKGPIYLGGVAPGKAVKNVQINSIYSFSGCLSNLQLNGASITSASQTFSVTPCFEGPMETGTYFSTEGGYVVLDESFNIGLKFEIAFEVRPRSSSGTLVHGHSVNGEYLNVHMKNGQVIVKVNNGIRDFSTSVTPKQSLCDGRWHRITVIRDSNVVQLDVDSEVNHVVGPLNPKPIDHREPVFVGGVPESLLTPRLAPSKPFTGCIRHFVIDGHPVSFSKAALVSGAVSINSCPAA
T4 sequence (P55268 33-1798 limits assumed, chain 2 of 3): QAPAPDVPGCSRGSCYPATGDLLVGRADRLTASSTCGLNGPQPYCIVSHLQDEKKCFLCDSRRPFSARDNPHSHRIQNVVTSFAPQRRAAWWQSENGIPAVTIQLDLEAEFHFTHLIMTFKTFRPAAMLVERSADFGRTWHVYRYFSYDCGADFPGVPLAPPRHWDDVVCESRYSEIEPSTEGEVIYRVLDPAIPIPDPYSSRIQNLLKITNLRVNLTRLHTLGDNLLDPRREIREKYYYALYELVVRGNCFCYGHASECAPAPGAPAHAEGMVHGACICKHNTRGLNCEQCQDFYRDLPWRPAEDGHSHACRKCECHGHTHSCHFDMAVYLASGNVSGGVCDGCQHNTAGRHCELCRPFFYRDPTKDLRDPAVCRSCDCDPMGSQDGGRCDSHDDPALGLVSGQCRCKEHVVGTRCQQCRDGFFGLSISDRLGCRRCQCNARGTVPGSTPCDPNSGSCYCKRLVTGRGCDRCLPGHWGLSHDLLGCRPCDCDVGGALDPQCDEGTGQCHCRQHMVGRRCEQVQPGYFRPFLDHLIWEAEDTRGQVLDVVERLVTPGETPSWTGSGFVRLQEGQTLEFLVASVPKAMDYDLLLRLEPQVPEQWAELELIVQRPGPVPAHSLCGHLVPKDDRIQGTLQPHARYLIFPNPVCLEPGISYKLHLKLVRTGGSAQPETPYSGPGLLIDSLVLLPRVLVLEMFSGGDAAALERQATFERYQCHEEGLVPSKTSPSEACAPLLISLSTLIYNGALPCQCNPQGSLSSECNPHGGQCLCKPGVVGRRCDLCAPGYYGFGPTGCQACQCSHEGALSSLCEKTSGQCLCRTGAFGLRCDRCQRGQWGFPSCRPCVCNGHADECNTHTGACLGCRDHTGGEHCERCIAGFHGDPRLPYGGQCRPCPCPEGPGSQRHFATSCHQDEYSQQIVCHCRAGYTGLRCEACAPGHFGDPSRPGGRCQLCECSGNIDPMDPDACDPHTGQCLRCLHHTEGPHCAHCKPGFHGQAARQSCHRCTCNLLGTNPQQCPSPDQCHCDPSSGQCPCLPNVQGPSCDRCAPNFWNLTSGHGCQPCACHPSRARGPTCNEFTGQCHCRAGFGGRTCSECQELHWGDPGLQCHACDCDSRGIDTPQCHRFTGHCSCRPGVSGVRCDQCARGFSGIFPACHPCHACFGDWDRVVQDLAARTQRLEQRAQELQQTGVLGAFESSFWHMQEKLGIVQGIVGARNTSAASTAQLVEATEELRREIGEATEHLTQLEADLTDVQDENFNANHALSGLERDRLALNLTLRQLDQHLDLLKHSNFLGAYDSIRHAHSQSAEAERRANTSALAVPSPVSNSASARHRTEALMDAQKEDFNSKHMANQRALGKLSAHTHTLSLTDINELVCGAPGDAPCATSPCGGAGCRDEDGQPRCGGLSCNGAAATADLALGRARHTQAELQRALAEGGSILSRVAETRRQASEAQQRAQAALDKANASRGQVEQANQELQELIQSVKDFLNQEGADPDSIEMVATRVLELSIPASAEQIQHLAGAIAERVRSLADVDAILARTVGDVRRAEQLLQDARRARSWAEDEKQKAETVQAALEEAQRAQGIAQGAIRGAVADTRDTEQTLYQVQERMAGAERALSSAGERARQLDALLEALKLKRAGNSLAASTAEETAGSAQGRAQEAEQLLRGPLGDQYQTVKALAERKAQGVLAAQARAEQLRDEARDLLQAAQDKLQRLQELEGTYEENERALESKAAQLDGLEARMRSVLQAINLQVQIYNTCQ
T4 sequence (P11047 34-1609 limits assumed, chain 3 of 3): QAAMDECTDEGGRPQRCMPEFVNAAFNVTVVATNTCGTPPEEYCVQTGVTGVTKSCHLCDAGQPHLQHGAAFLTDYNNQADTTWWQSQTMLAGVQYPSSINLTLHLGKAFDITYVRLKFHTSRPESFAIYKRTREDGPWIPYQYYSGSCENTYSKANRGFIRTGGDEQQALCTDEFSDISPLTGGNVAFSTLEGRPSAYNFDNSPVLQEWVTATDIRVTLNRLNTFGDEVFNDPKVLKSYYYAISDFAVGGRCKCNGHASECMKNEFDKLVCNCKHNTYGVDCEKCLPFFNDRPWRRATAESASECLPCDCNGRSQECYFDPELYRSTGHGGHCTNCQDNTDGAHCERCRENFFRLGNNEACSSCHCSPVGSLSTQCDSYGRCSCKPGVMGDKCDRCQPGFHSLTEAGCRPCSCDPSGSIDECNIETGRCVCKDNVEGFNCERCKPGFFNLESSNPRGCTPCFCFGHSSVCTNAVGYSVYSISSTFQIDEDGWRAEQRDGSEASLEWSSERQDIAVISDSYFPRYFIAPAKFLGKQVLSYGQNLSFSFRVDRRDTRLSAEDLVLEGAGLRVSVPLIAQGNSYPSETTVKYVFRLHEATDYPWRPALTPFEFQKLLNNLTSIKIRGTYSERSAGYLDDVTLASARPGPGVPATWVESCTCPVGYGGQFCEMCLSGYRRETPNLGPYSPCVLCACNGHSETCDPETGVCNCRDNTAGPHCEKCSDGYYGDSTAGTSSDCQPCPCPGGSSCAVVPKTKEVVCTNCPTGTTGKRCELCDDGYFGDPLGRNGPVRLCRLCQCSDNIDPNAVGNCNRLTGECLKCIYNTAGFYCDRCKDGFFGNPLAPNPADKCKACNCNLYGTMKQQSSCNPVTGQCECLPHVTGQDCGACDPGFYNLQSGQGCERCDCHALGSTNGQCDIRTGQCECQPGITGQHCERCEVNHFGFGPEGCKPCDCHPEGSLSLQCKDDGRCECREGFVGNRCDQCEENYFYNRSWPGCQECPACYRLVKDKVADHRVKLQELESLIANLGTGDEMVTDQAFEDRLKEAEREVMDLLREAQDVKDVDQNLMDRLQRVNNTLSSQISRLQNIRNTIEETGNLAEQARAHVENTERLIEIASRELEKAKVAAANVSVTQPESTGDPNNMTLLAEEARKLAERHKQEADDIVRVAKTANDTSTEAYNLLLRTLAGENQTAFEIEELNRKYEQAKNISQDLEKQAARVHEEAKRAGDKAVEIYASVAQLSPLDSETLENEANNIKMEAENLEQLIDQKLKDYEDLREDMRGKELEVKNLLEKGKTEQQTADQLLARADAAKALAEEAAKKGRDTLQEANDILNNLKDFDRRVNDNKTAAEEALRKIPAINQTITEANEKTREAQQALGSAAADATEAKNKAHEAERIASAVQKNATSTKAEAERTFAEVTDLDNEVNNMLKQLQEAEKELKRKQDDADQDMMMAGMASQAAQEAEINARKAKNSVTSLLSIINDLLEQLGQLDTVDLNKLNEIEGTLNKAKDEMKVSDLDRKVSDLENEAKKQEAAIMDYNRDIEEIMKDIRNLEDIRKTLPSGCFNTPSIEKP

B1: placental growth factor (PlGF)-2 (ligand, human, UniProt P49763-3 19-170, looked up)
chain: LPAVPPQQWALSAGNGSSEVEVVPFQEVWGRSYCRALERLVDVVSEYPSEVEHMFSPSCVSLLRCTGCCGDENLHCVPVETANVTMQLLKIRSGDRPSYVELTFSQHVRCECRPLREKMKPERRRPKGRGKRRREKQRPTDCHLCGDAVPRR
notes: mature; Purchased in mature form
binding result [1]: binds | binding result [2]: binds | binding result [3]: binds | binding result [4]: binds | koff [5]: 0.0246 s⁻¹ | kon [5]: 1.91e+06 M⁻¹ s⁻¹ | binding result [6]: binds | Kd [7]: 12.9 nM | binding result [8]: binds | binding result [9]: binds

B2: platelet-derived growth factor (PDGF)-BB (ligand, human, UniProt P01127 82-190, looked up)
chain: SLGSLTIAEPAMIAECKTRTEVFEISRRLIDRTNANFLVWPPCVEVQRCSGCCNNRNVQCRPTQVQLRPVQVRKIEIVRKKPIFKKATVTLEDHLACKCETVAAARPVT
notes: as for B1
Kd [10]: 154 nM | koff [10]: 0.0664 s⁻¹ | kon [10]: 430000 M⁻¹ s⁻¹ | Kd [7]: 24.2 nM | Kd [11]: 12.1 nM | koff [11]: 0.0136 s⁻¹ | kon [11]: 1.12e+06 M⁻¹ s⁻¹ | Kd [12]: 23.8 nM | koff [12]: 0.00508 s⁻¹ | kon [12]: 213000 M⁻¹ s⁻¹ | Kd [13]: 10.2 nM | binding result [14]: binds | binding result [15]: binds | binding result [16]: binds | binding result [17]: binds | Kd [18]: 24 nM | koff [19]: 0.00497 s⁻¹ | kon [19]: 206000 M⁻¹ s⁻¹
